Assay results as given in PMC9276808, “Structural identification of riluzole-binding site on human TRPC5” (Cell Discovery, 2022).

Target: the molecule itself
Assay: cryo-EM structure; purified hTRPC5(1-764) supplemented with riluzole; single particle analysis, global resolution 2.4 Å

B1: truncated functional human TRPC5 (hTRPC5_(1–764)) (domain or fragment, UniProt Q9UL62 1-764, looked up)
chain: MAQLYYKKVNYSPYRDRIPLQIVRAETELSAEEKAFLNAVEKGDYATVKQALQEAEIYYNVNINCMDPLGRSALLIAIENENLEIMELLLNHSVYVGDALLYAIRKEVVGAVELLLSYRRPSGEKQVPTLMMDTQFSEFTPDITPIMLAAHTNNYEIIKLLVQKRVTIPRPHQIRCNCVECVSSSEVDSLRHSRSRLNIYKALASPSLIALSSEDPILTAFRLGWELKELSKVENEFKAEYEELSQQCKLFAKDLLDQARSSRELEIILNHRDDHSEELDPQKYHDLAKLKVAIKYHQKEFVAQPNCQQLLATLWYDGFPGWRRKHWVVKLLTCMTIGFLFPMLSIAYLISPRSNLGLFIKKPFIKFICHTASYLTFLFMLLLASQHIVRTDLHVQGPPPTVVEWMILPWVLGFIWGEIKEMWDGGFTEYIHDWWNLMDFAMNSLYLATISLKIVAYVKYNGSRPREEWEMWHPTLIAEALFAISNILSSLRLISLFTANSHLGPLQISLGRMLLDILKFLFIYCLVLLAFANGLNQLYFYYETRAIDEPNNCKGIRCEKQNNAFSTLFETLQSLFWSVFGLLNLYVTNVKARHEFTEFVGATMFGTYNVISLVVLLNMLIAMMNNSYQLIADHADIEWKFARTKLWMSYFDEGGTLPPPFNIIPSPKSFLYLGNWFNNTFCPKRDPDGRRRRRNLRSFTERNADSLIQNQHYQEVIRNLVKRYVAAMIRNSKTHEGLTEENFKELKQDISSFRYEVLDLLGNR
notes: The sample was supplemented with riluzole, and Ca2+, DAG and lipids are seen in the map; also called transient receptor potential canonical subfamily member 5; source: purified
**Q.** How did the “stoichiometry N” value turn out when B1 was run?
**A.** 4
